Measured values reported in patent publication US20240190985A1 (NEW YORK UNIVERSITY, published 2024).
One block for each binder: values may come before it.

B3: CD99 endogenously expressed on cells (Jurkat, KOPT-K1) (receptor)
chain: DGGFDLSDALPDNENKKPTAIPKKPSAGDDFDLGDAVVDGENDDPRPPNPPKPMPNPNPNHPSSSGSFSDADLADGVSGGEGKGGSDGGGSHRKEGEEADAPGVIPGIVGAVVVAVAGAISSFIAYQKKKLCFKENAEQGEVDMESHRNANAEPAVQRTLLEK
modifications: O-linked glycosylation (natural, on cells)
notes: also called endogenously expressed CD99; CD99 on cells

Columns and labels:
[1] = target: B3; assay: cell-based or functional assay
[2] = target: B3; assay: flow cytometry titration on KOPT-K1 cells, anti-Fab secondary antibody (FIG. 3B)
[3] = target: T1, CD99 peptide containing the 10A1 epitope, Ac-GENDDPRPPNPPKPM-amide (human); assay: X-ray crystal structure of the complex, 3.10 Å
T1 construct: Synthetic peptide (New England Peptide); also called residues 62-76
T1 peptide: Ac-GENDDPRPPNPPKPM-NH2

[4] = target: T2, tetravalent SAV-10A1 Fab complex (A4 streptavidin with biotinylated 10A1 Fab) (UniProt P22629 37-163, limits assumed, biotin on the C-terminal AviTag of the Fab heavy chain); assay: flow cytometry titration on KOPT-K1 cells (FIG. 4C)
T2 construct: also called tetravalent SAV-Fab complex; not shown: N-terminal 6xHis tag
T2 sequence (P22629 37-163 limits assumed, one chain of several): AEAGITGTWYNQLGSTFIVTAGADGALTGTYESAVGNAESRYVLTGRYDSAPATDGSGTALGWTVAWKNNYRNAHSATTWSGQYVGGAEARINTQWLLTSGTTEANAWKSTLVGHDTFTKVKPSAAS

maximum fluorescence intensity relative to the bivalent and dodecavalent antibodies [2]: ~0.5 fold
B1: 10A1 IgG-HCscFv (antibody)
heavy: QVQLQQSGPVLVKPSQTLSLTCAISGDSISSDTTAWSWIRRSPSRGLEWLGWTYYRSKWFNYYAVSVKGRVTINPDTSKNQFSLQLSSVTPEDTAVYYCARGNGNGGMDVWGQGTTVTVSSASTKGPSVFPLAPSSKSTSGGTAALGCLVKDYFPEPVTVSWNSGALTSGVHTFPAVLQSSGLYSLSSVVTVPSSSLGTQTYICNVNHKPSNTKVDKKVEPKSCDKTHTCPPCPAPEAAGGPSVFLFPPKPKDTLMISRTPEVTCVVVDVSHEDPEVKFNWYVDGVEVHNAKTKPREEQYNSTYRVVSVLTVLHQDWLNGKEYKCKVSNKALGAPIEKTISKAKGQPREPQVYTLPPSREEMTKNQVSLTCLVKGFYPSDIAVEWESNGQPENNYKTTPPVLDSDGSFFLYSKLTVDKSRWQQGNVFSCSVMHEALHNHYTQKSLSLSPGKSSGSSGSSSSSGSSSQVQLQQSGPVLVKPSQTLSLTCAISGDSISSDTTAWSWIRRSPSRGLEWLGWTYYRSKWFNYYAVSVKGRVTINPDTSKNQFSLQLSSVTPEDTAVYYCARGNGNGGMDVWGQGTTVTVSSGSSSSSSGSSGSSSSSYVLTQPASASVSPGQTARITCSGDALPKQYAYWYQQKPGQAPVLVIFKDSERPSGVPERFSGSSSGTTVTLTISGAQAEDEADYYCQSVDNSGFYQVFGGGTQLTVL
light: SYVLTQPASASVSPGQTARITCSGDALPKQYAYWYQQKPGQAPVLVIFKDSERPSGVPERFSGSSSGTTVTLTISGAQAEDEADYYCQSVDNSGFYQVFGGGTQLTVLRTVAAPSVFIFPPSDEQLKSGTASVVCLLNNFYPREAKVQWKVDNALQSGNSQESVTEQDSKDSTYSLSSTLTLSKADYEKHKVYACEVTHQGLSSPVTKSFNRGEC
notes: Human IgG1 LALA-PG with the 10A1 scFv appended by a linker to the C-terminus of each heavy chain; Valency of four; also called 10A1 HCscFv; 10A1 HC-scFv
IC50 of cytotoxicity (Annexin V, KOPT-K1 cells, 18 hours) [1]: 82 nM Fv

binding result [3]: binds
B2: 10A1 Fab (Fab, V domains shown)
VH: QVQLQQSGPVLVKPSQTLSLTCAISGDSISSDTTAWSWIRRSPSRGLEWLGWTYYRSKWFNYYAVSVKGRVTINPDTSKNQFSLQLSSVTPEDTAVYYCARGNGNGGMDVWGQGTTVTVSS
VL: SYVLTQPASASVSPGQTARITCSGDALPKQYAYWYQQKPGQAPVLVIFKDSERPSGVPERFSGSSSGTTVTLTISGAQAEDEADYYCQSVDNSGFYQVFGGGTQLTVL
notes: Fab made in E. coli by attaching VH and VL to CH1 and CL; also called 10A1 in the Fab format; monovalent 10A1

Binder: B3
binding result [4]: binds
